Substitutions are numbered along the chain they refer to.
B1: C931 (antibody, V domains shown)
VH: QVQLVESGGGVVQPGRSLRLSCAASGFSFSTYGMHWVRQAPGKGLEWVAVISFDGSQKYYGDSVKGRFTISRDNPKNTLDLQMNSLRAEDTAVYYCAKVVVRGVIISLYYGMDVWGQGTTVTVSS
VL: not shown
B2: C914 (antibody, V domains shown)
VH: QVQLQESGPGLVKPSQTLSLTCTVSGGSITSGDYYWTWIRQPPGKGLEWIGYIYYSGNTYYNLSLRSRITISEDTSKNQFSLKLRSVTAADTAVYYCARAMITFGGVIVVLDYWGQGTLVTVSS
VL: QSALTQPPSASGSPGQSVTISCTGTSTDVGGYNFVSWYQQHPGKAPKLMIYEVSKRPSGVPDRFSGSKSGNTASLTVSGLQAEDEADYYCSSYAGSNILYVFGTGTKVTVL
B3: C915 (antibody, V domains shown)
VH: QVQLQESGPGLVKPSQTLSLTCTVSGGSISSGDYYWSWIRQPPGKGLEWIGYIYYSDSTYYNPSLRTRVTISVDTSKNQFSLKLTSVTAADTAVYYCARAMITFGGVIVLYDYWGQGTLVTVSS
VL: B2 VL with T27S, F34Y, S54T, D62A, N97I, I98L
B4: C928 (antibody, V domains shown)
VH: QVQLVESGGGVVQPGRSLRLSCAASGFTFSFFDMHWVRQAPGKGLEWVADISYDGSNQYYGDSVKGRFTISRDNSKSTLYLQMNSLRAEDTAVYYCAKPVDTAMFDSWGQGTLVTVSS
VL: SYELTQPPSVSVAPGETARITCGGNNIGHKSVHWYQQQPGQAPVLVIYYDSERPSGIPERFSGSNSGNTATLTISRVEAGDEADYHCQVWDGGNDHLVIFGGGTKLTVL
B5: C920 (antibody, V domains shown)
VH: QLQLQESGPGLVKPSETLSLTCAVSGGSISNSPFYWGWIRQPPGKGLECIGSIYYSGSTYYNPSLKSRVTISVDTSKKQFSLKLSSVTAADTAVYYCARHFADGSGRVVDSWGQGILVTVSS
VL: EIVLTQSPATLSLSPGERATLSCRASQSVSSYLAWYQQKPGQAPSLLIYDVSNRATGIPARFSGSGSGTDFTLTISSLEPEDFAVYYCQQRINWPLYTFGQGTKLEIK
B6: C921 (antibody, V domains shown)
VH: B5 VH with G37A, S56T, K77T, S85R, S111Y, I116T
VL: B5 VL with S30T, S31T, S45R, N53S, I92S
B7: C922 (antibody, V domains shown)
VH: QVQLVESGGGLVKPGGSLRLSCAGSGFTFTDYYMAWIRQAPGKGLEWVSYISTSDRFINYADSVKGRFTISRDDAKNSLYLQMNSLRAEDTAVYYCARDGGGYDRFDHWGQGTLVTVSS
VL: DIQMTQSPSSLSASVGDRVTITCQASQDISNLLNWYQQKAGKAPKLLIYDASNLETGVPSRFSGSGSGTDFTFTISSLQPEDIATYYCLQYDNLPLTFGQGTKLEIK
B8: C923 (antibody, V domains shown)
VH: QVQLVESGGGLVKPGGSLRLSCAASGFTFSDYHMTWIRQAPGKGLEWVSYISNRSTYRNYADSVKGRFTISRDNAKNSLYLQMNSLRAEDTAVYYCARDGGAYDRFDYWGQGTLVTVSS
VL: B7 VL with S30K, N31K, L32F, A40P, F71L, L89Q
B9: C918 (antibody, V domains shown)
VH: QVQLVESGGGLVKPGGSLRLSCTASGFTFSDYYMTWLRQAPGKGLEWVSYISSTSPYTSYADSVKGRFTISRDNARNSVYLQMNSLRAEDTAIYYCARVPPPQRLHPFDVWGQGTMVTVSS
VL: DIQMTQSPSTLSASVGDRVTITCRASQSISSWLAWYQQKPGKAPKLLIYQASSLESGVPSRFSGSGSGTDFTLTISSLQPDDFATYYCQQYFRYSWTFGQGTKVEI
B10: C927 (antibody, V domains shown)
VH: QVQLVESGGGVVQPGRSLRLSCVASGFTFSYFDMHWVRQAPGKGLEWVALISHDGSTTFYGDSARGRFTISRDNSRNTLDLQMNSLRPEDTAVYFCAKPVDAAMFDFWGQGTLVTVS
VL: SYELTQPPSVSVAPGKTARITCGGNNIGSKSVHWYQQRPGQAPVLVIYYDSDRPSGIPERFSGSNSGNTATLTISRVEAGDEADFYCQVWDRSTNHLVVFGGGTQLTVL
B11: C932 (antibody, V domains shown)
VH: QVQLVESGGSVVQPGKSLRLSCAGSGFAFSTYGMHWVRQAPGKGLEWVAVISSDGGNKYYADSVKGRFTISRDNYENTLYLQMNSLGAEDTAVYYCAKVALRGVFISLYYGMDVWGQGTTVTVSS
VL: SYELTQPPSVSVTPGQTASITCSGDKLGDKYACWFLQKPGQSPLLVIYQDTKRPSGIPDRLSGSKSGNTATLTISGTQAMDEADYYCQTWDSSAVVFGGGTKLTV
B12: C924 (antibody, V domains shown)
VH: QVQLVESGGGVVQPGRSLRLSCAASGFTFSSYGMHWVRQAPGKGLEWVAVISDDGSNKYYADSVKGRFTISRDNSKNTLYLQMNSLRAEDTAVYYCAKSWWLSENWFDPWGQGTLVTVSS
VL: EIVMTQSPATLSVSPGERATLSCRASQSVSSNLAWYQQKPGQAPRLLIYGASTRATGIPARFSGTGSGTEFTLTISSLQSEDFAVYYCQQYNNWPLTFGGGTKVEIK
B13: C925 (antibody, V domains shown)
VH: B12 VH with S31N, M34L, I51T, S56N, N57R, N74D, S85N, A88T
VL: B12 VL with S30R, K39R, S52F, G64V, T65S, S76D
B14: C916 (antibody, V domains shown)
VH: EVQLVESGGGLVQPGGSLRLSCAASGFTFSNYDMHWVRQATGRGLEWVSTIGTAGDTYYPGSVKGRFTISRENAKNSLYLQMNSLRAGDTALYYCARVRYDSSGYFWSLDYWGQGTLVTVSS
VL: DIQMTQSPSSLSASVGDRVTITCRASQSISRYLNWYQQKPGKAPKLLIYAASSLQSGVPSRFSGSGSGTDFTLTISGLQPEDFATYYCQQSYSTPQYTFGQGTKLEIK
B15: C917 (antibody, V domains shown)
VH: B14 VH with R43K, E46D, L92V, Y100F, S102T
VL: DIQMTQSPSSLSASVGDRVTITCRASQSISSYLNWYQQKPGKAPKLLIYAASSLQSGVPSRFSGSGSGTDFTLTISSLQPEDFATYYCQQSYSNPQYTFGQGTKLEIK
B16: C934 (antibody, V domains shown)
VH: QVQLVQSGAEVKKPGASVKVSCKASGYTFTDYYIHWVRQAPGQGLEWMGWINPNSGGTNYAQKFQGRVTMTRDTSISTAYMDLSRLRSDDTAVYYCARDVIITMGRGVVFRMDVWGQGTTVTVSS
VL: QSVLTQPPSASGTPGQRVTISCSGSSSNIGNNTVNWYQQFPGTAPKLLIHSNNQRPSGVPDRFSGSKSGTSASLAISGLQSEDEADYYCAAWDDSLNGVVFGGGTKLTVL
B17: C929 (antibody, V domains shown)
VH: EVQLVESGGGLIQPGGSLRLSCAASGFTVSSNYMTWVRQAPGKGLEWVSVIYSGGTTYYADSVKGRFTISRDNSKNTLYLQMNSLRAEDTAVYYCARDLVVWGMDVWGQGTTVTVSS
VL: DIQLTQSPSFLSASVGDRVTITCRASQGISSYLAWYQQKPGKAPKLLIYAASTLQSGVPSRFSGSGSGTEFTLTISSLQPEDFATYYCQLLNSYPYTFGQGTKLEIK
B18: C936 (antibody, V domains shown)
VH: B17 VH with T35S, T56S, Y58F, V100G, V101T, W102G, G103L, M104F, V106Y, T112L
VL: DIQLTQSPSFLSASVGDRVTITCRASQGISSYLAWYQQKPGKAPKLLIYAASTLQSGVPSRFSGSGSGTEFTLTISSLQPEDFATYYCQQLDSYPPGTFGPGTKVDIK
B19: C930 (antibody, V domains shown)
VH: B17 VH with I12F, S21A, F27I, T35S, A40P, S53A, T56S, Y58F, F67L, M82I
VL: B17 VL with L90Q, S93T
B20: C937 (antibody, V domains shown)
VH: EVQLVESGGGLIQPGGSLRLSCAASELTVSSNYMSWVRQAPGKGLEWVSVIYPGGSTFYADSVKGRFTISRDNSKNTLYLQMNSLRAEDTAVYYCARDLGTGLFDYWGQGTLVTVSS
VL: B18 VL with Y87F, Q90L, D92N, Y94N

These binders were tested against T1, SARS-COV-2 RBD (SARS-COV-2, UniProt P0DTC2 319-539) (assay: ELISA, RBD coated on plate).
T1 construct: also called WT RBD

First: B1
Second: B2
The EC50 of the first is 1.6-fold higher: 2.57 ng/mL for the first, 1.59 ng/mL for the second.

B3 and B4 are within 1.5-fold of each other in EC50: 3.49 ng/mL for the first, 4.14 ng/mL for the second.

Going from B5 to B6, the EC50 rises from 2.35 ng/mL to 3.91 ng/mL (1.7-fold).

B7 and B8 are within 1.5-fold of each other in EC50: 2.42 ng/mL for the first, 1.95 ng/mL for the second.

Going from B9 to B10, the EC50 rises from 1.78 ng/mL to 3.77 ng/mL (2.1-fold).

B11 and B12 are within 1.5-fold of each other in EC50: 3.57 ng/mL for the first, 2.5 ng/mL for the second.

B13 and B14 are within 1.5-fold of each other in EC50: 2.26 ng/mL for the first, 1.97 ng/mL for the second.

B15 and B16 are within 1.5-fold of each other in EC50: 1.05 ng/mL for the first, 0.95 ng/mL for the second.

B17 and B18 are within 1.5-fold of each other in EC50: 2.07 ng/mL for the first, 1.56 ng/mL for the second.

B19 and B20 are within 1.5-fold of each other in EC50: 1.24 ng/mL for the first, 0.97 ng/mL for the second.

Reference: US20240218057A1 (ROCKEFELLER UNIVERSITY, published 2024)
